Laboratory results reported in patent US20260062442A1, “COMPOSITIONS AND METHODS FOR PURIFYING ANTIGEN-BINDING ANTIBODY FRAGMENTS USING PEPTIDE LIGANDS” (North Carolina State University, priority 2022, published 2026).
Ends that are not written are not given here.

Key:
human polyclonal Fab [1] = assay: Dynamic binding of human polyclonal Fab on peptide-Toyopearl resins (chromatograms); conditions: residence time 2 min; for amount of human Fab that flowed through: human Fab at 2 mg/mL in PBS; for binding of human polyclonal Fab (chromatogram): human polyclonal Fab at 2 mg/mL in PBS
Method: (§1) Dynamic binding of human Fab-κ and Fab-λ in non-competitive condition. The peptides listed in Table 3 were synthesized on Toyopearl resins as described herein, and the resulting adsorbents were packed into 0.1 mL (30×2.1 mm) columns, installed on a Waters Alliance 2695 HPLC system (Milford, MA), and equilibrated with PBS at pH 7.4. […] The subsequent chromatographic steps of washing with PBS, elution with 0.2 M acetate buffer pH 4, regeneration with 0.1 M glycine buffer pH 2.5, and equilibration with PBS were all performed at 348 cm/h. The dynamic binding protocol was repeated with 50 μL of human Fab-κ and Fab-λ, both at 1 mg/mL in PBS. The column effluent was continuously monitored at 280 nm by UV spectrophotometry. The yield was determined by peak area analysis and determined by taking the area of the elution peak divided by the flow-through, elution, and regeneration peak areas. Finally, the dynamic binding capacity at 10% flowthrough of […]-Toyopearl resin was measured via continuous loading of a solution of human polyclonal Fab at either 1, 2, or 5 mg/mL in PBS at the linear velocity of either 173, 87, or 35 cm/h, corresponding to the residence times (RT) of 1, 2, and 5 min, until reaching saturation of the adsorbent. The dynamic binding capacity of Protein L-agarose resin was measured via continuous loading of human polyclonal Fab at 1 mg/mL in PBS at the linear velocity of either 173 or 87 cm/h, corresponding to RT of 1 and 2 min, until reaching saturation of the adsorbent.
Secondary selection of Fab-binding peptide ligands via dynamic binding studies. The candidate ligands selected from library screening were conjugated to Toyopearl AF-Amino-650M resin and evaluated via Fab binding studies in dynamic mode. Toyopearl resin was selected for chromatographic evaluation owing to its low non-specific protein adsorption, low compressibility, and strong chemical stability. The residence time of 2 minutes (RT: 2 min) was adopted to mimic the loading conditions utilized in industrial bioprocessing. A solution of human polyclonal Fab at 2 mg/mL in PBS was adopted as feedstock to discern ligands that either bind all Fab or target selectively Fab-κ or Fab-λ; accordingly, the top ligands by elution peak area were subjected to further analysis with either pure k or λ subtypes. Finally, in line with library screening, A 0.2 M acetate buffer was utilized at pH 4 for Fab elution; this value of pH is sufficient to ensure high yield without compromising the integrity and bioactivity of the product. This represents a distinct advantage of peptide ligands with moderate affinity compared to high-affinity protein ligands; for comparison, Protein L as well as KappaSelect and LambdaFabSelect resins require elution at pH 2.5-3.

monoclonal Fab-κ = conditions: cited from earlier work
human Fab-κ = assay: Dynamic binding of human Fab-κ in non-competitive condition on peptide-Toyopearl resins; conditions: κ and λ Fabs, 1 mg/mL in PBS, residence time 2 min
Method: as §1, with “The dynamic binding capacity of Protein L-agarose resin was measured via continuous loading of human polyclonal Fab at 1 mg/mL in PBS at the linear velocity of either 173 or 87 cm/h, corresponding to RT of 1 and 2 min, until reaching saturation of the adsorbent.” left out

human Fab-κ (human) [2] = assay: equilibrium adsorption isotherm on resin, Langmuir fit
human polyclonal Fab [3] = assay: Dynamic binding capacity at 10% breakthrough with human polyclonal Fab in PBS; conditions: RT of 2 min, range
Method: as §1, with “The dynamic binding capacity of Protein L-agarose resin was measured via continuous loading of human polyclonal Fab at 1 mg/mL in PBS at the linear velocity of either 173 or 87 cm/h, corresponding to RT of 1 and 2 min, until reaching saturation of the adsorbent.” left out

scFv13R4 = assay: Purification of scFv from P. pastoris perfusate; conditions: scFv eluted at 0.1 M glycine pH 2.5, not at pH 4
Method: Preparation of spiked feedstock. A wild-type X33 P. pastoris strain was obtained from ThermoFisher Scientific as an agar stab. This stab was used to create freezer stocks, which were stored at −80° C. A vial from the freezer stock was thawed, plated on a yeast extract peptone dextrose (YPD) agar plate, and incubated at 30° C. A single colony was then used to inoculate a 1 L vented shake flask containing 100 mL of Buffered Glycerol-complex Medium (BMGY), and the flask was incubated at 250 rpm at 30° C. A 300 mL bioreactor connected to a perfusion device was prepared and inoculated with cells harvested from the shake flask. After an initial growth phase, the perfusion system was activated, and fluid was continuously extracted from the bioreactor at a rate of 1.5 vessel volumes per day (VVD) while retaining the cells. Simultaneously to activating the perfusion system, a 2% v/v methanol feedstock containing IgG at 0.5 mg/mL began to be fed continuously into the bioreactor at 1.5 VVD. […]
Purification of scFv from P. pastoris perfusate. […] Washing, elution, and regeneration steps were all performed at 0.5 mL/min (231 cm/h), while the effluent was continuously monitored by UV spectrophotometry at 280 nm. […] The collected fractions were analyzed via non-reducing SDS-PAGE analysis after concentration and diafiltration to PBS at pH 7.4 by a 10 kDa MWCO spin concentrator.

[4] = biological target: engineered monoclonal Fab-κ (0.171 mg/mL in clarified CHO-K1 cell culture harvest); assay: capture from CHO-K1 CCCF with engineered Fab 0.171 mg/mL, elution pH 2.5; yield by anti-human Fab ELISA
[5] = biological target: human polyclonal Fab (human); assay: equilibrium adsorption isotherm on resin, Langmuir fit
[6] = biological target: human polyclonal Fab (human); assay: dynamic binding capacity at 10% breakthrough, Fab 2 mg/mL in PBS, residence time 2 min
[7] = biological target: human polyclonal Fab (human); assay: capture from null CHO-S CCCF spiked with human Fab 1 mg/mL, elution pH 4; yield by anti-human Fab ELISA
[8] = biological target: human polyclonal Fab (human); assay: dynamic binding capacity at 10% breakthrough, Fab 1 mg/mL in PBS, residence time 1 min
Certolizumab pegol [9] = assay: capture from CHO-S CCCF spiked with Certolizumab 1 mg/mL, elution pH 4
human Fab-λ (human) [10] = assay: dynamic binding on peptide-Toyopearl column, Fab 1 mg/mL in PBS, residence time 2 min
human Fab-κ (human) [11] = assay: as above
[12] = biological target: human polyclonal Fab (human); assay: dynamic binding capacity at 10% breakthrough, Fab 1 mg/mL in PBS, residence time 5 min
[13] = biological target: human polyclonal IgG (human); assay: capture of IgG 0.5 mg/mL from P. pastoris perfusate, elution pH 4; yield by Protein G HPLC
human Fab-λ (human) [14] = assay: dynamic binding on peptide-Toyopearl column, Fab 1 mg/mL in PBS, residence time 2 min, elution pH 4; yield = elution peak area over total peak area
human Fab-κ (human) [15] = assay: as above
Certolizumab pegol [16] = assay: capture from null CHO-S CCCF spiked with Certolizumab 1 mg/mL, elution pH 4; yield by anti-human Fab ELISA
[17] = biological target: human polyclonal Fab (human); assay: dynamic binding capacity at 10% breakthrough, Fab 5 mg/mL in PBS, residence time 2 min
[18] = biological target: human polyclonal Fab (human); assay: dynamic binding capacity at 10% breakthrough, Fab 5 mg/mL in PBS, residence time 1 min
[19] = biological target: human polyclonal IgG (human); assay: dynamic binding capacity at 10% breakthrough, P. pastoris perfusate with IgG 0.5 mg/mL, residence time 2 min
[20] = biological target: engineered monoclonal Fab-κ (0.171 mg/mL in clarified CHO-K1 cell culture harvest); assay: capture from CHO-K1 CCCF with engineered Fab 0.171 mg/mL, elution pH 4; yield by anti-human Fab ELISA
[21] = biological target: human polyclonal Fab (human); assay: dynamic binding capacity at 10% breakthrough, Fab 1 mg/mL in PBS, residence time 2 min
[22] = biological target: human polyclonal Fab (human); assay: dynamic binding on peptide-Toyopearl column, human Fab 2 mg/mL in PBS, residence time 2 min

In the case of “WHYNWQDVSDRQ [A5, variant peptide ligand developed by Nascimento et al]”, the “amount of human Fab that flowed through” value (human polyclonal Fab [1]) is reported as 61%.

For “WIPNSEFEHERTK [B1, peptide ligand for monoclonal Fab-κ identified by Nascimento et al]”, the “affinity for two other monoclonal Fabs” value (monoclonal Fab-κ) is listed as “little-to-no affinity” and the “binding of human polyclonal Fab (chromatogram)” value (human polyclonal Fab [1]) is listed as “failed to bind”.

In the case of IIHRRAFWWFPN, the “fraction of the loaded Fab bound” value (human Fab-κ) is reported as “approximately half”.

Protein L-Sepharose resin gave a Kd (human Fab-κ (human) [2]) of 30.9 nM and a Qmax (mg per mL of resin) (human Fab-κ (human) [2]) of 20.7.

For FRWNFHRNTFFP, the DBC10% (human polyclonal Fab [3]) was 6 to 16 mg/mL, the “fraction of the loaded Fab bound” value (human Fab-κ) was “approximately 90%” and the “relative affinity for scFv vs Fab” value (scFv13R4) was “higher affinity for scFv than Fab”. For the same molecule, the “binding of human polyclonal Fab (chromatogram)” value (human polyclonal Fab [1]) was “very low flow-through peak area”.

Protein L-agarose resin gave a Yield [4] of 91%.

With “HQNHHSTFRWEIY [C7, variant peptide ligand developed by Nascimento et al]” the “amount of human Fab that flowed through” value (human polyclonal Fab [1]) was 79%.

B1: … (peptide)
peptide: FRWNFHRNTFFP
modifications: also: C-terminus attached to Toyopearl AF-Amino-650M resin or ChemMatrix bead
In the case of B1, the Kd [5] is reported as 2160 nM, the Qmax (mg per mL of resin) [5] is reported as 20.4 and the Kd (human Fab-κ (human) [2]) is reported as 2050 nM. For the same molecule, the Qmax (mg per mL of resin) (human Fab-κ (human) [2]) was 19, the DBC10% (mg Fab per mL of resin) [6] was 10.9 and the Yield [7] was 94.1%. For the same molecule, the DBC10% (mg Fab per mL of resin) [8] was 4.5, the Yield (Certolizumab pegol [9]) was 96.5% and the percent of the load bound (human Fab-λ (human) [10]) was 90%. The percent of the load bound (human Fab-κ (human) [11]) was 90%, the DBC10% (mg Fab per mL of resin) [12] was 7 and the Yield [13] was 33%. For the same molecule, the Fab-λ Yield (human Fab-λ (human) [14]) was 91%, the Fab-κ Yield (human Fab-κ (human) [15]) was 89% and the Yield (Certolizumab pegol [16]) was 96%. It also gave a DBC10% (mg Fab per mL of resin) [17] of 16.5, a DBC10% (mg Fab per mL of resin) [18] of 15.5 and a DBC10% (mg IgG per mL of resin) [19] of 13.4. For the same molecule, the DBC10% (mg IgG per mL resin) [19] was 13.4, the Yield [20] was 93.3% and the DBC10% (mg Fab per mL of resin) [21] was 6.

B2: … (peptide)
peptide: WHYNWQDVSDRQ
modifications: also: attached to Toyopearl resin, site not given here
B2 showed a percent of human Fab that flowed through (unbound) [22] of 61%.

B3: … (peptide)
peptide: IIHRRAFWWFPN
modifications: also: C-terminus attached to Toyopearl AF-Amino-650M resin or ChemMatrix bead
Work on B3 yielded a Kd [5] of 5140 nM, a Qmax (mg per mL of resin) [5] of 13.5 and a Kd (human Fab-κ (human) [2]) of 5820 nM. For the same molecule, the Qmax (mg per mL of resin) (human Fab-κ (human) [2]) was 11.9, the Fab-λ Yield (human Fab-λ (human) [14]) was 66% and the Fab-κ Yield (human Fab-κ (human) [15]) was 55%.

B4: … (peptide)
peptide: RWTIWPPNWHPP
modifications: also: C-terminus attached to Toyopearl AF-Amino-650M resin or ChemMatrix bead
Molecule B4 has a Fab-λ Yield (human Fab-λ (human) [14]) of 53% and a Fab-κ Yield (human Fab-κ (human) [15]) of 40%.

B5: … (peptide)
peptide: IRHHNIWFNTIA
modifications: also: C-terminus attached to Toyopearl AF-Amino-650M resin or ChemMatrix bead
B5 gave a Fab-λ Yield (human Fab-λ (human) [14]) of 42% and a Fab-κ Yield (human Fab-κ (human) [15]) of 42%.

B6: … (peptide)
peptide: HQNHHSTFRWEIY
modifications: also: attached to Toyopearl resin, site not given here
Molecule B6 has a percent of human Fab that flowed through (unbound) [22] of 79%.
